From patent US20110262347A1 (SALK INSTITUTE FOR BIOLOGICAL STUDIES, published 2011) come the findings set out here.

No end group written: not given here. *: point of attachment. Biotin = O=C1N[C@H]2[C@H](CS[C@H]2CCCCC(=O)*)N1

In assay [1] the target is T1, p32 protein from mouse liver mitochondria extracts (mouse, UniProt O35658 71-278).
T1 construct: Endogenous protein pulled down from detergent lysate of Balb/c mouse liver mitochondria; also called C1qBP; specific band below 36-kDa
T1 sequence (looked up): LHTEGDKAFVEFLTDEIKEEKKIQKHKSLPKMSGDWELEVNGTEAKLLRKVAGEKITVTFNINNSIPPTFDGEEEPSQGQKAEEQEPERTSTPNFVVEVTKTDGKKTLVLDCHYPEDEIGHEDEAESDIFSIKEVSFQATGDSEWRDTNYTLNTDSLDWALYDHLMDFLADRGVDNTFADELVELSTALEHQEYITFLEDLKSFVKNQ
Kind of assay: pull-down from mitochondria extracts, mass spectrometry. How it is done:
Affinity chromatography. […] Gel bands excised from silver-stained gels were analyzed by MALDI-TOF mass spectrometry at the Burnham Institute for Medical Research Proteomics Resource.

The target of assay [2] is T2, purified p32 protein.
T2 chain: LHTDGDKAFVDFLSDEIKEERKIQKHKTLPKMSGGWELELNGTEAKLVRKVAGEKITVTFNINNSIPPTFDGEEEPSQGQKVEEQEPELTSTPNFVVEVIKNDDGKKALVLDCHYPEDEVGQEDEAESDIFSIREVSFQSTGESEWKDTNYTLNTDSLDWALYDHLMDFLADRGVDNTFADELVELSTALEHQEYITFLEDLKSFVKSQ
Kind of assay: saturation binding, ELISA-type: biotin-CGKRK on immobilized purified p32, streptavidin-HRP (FIG. 19). Background: ELISA stands for enzyme-linked immunosorbent assay.

The target of assay [3] is T2, purified p32 protein. Kind of assay: comparison of the filing's CGKRK-p32 affinity with a literature value for LyP-1.

B1: CGKRK peptide (peptide)
peptide: CGKRK
notes: Synthetic pentapeptide; also called Cys-Gly-Lys-Arg-Lys; non-labeled CGKRK
For the molecule B1, in assay [1], the binding result is “binds”.

B2: biotin-labeled CGKRK peptide (peptide)
peptide: Biotin-CGKRK
notes: Labeled form used in the ELISA-type assays on p32-coated wells, detected with streptavidin-HRP; also called biotin-CGKRK; biotin CGKRK
The term Kd denotes the free concentration of one partner at which half of the binding sites on the other are occupied at equilibrium, for simple one-to-one binding. B2 registered a Kd in the assay with purified p32 protein [2] of 0.2 µg/mL. Further, the “fold affinity relative to LyP-1” value in the assay with purified p32 protein [3] amounted to 15 fold.
